The target in experiment [1] is P-selectin (also called CD62P) (human) (UniProt P16109). Briefly: flow cytometry, percent of CD41-positive FDPDs stained; batch 2. In general terms: A flow cytometer gives signals particle by particle.
Experiment [2] has the same target. The experiment can be described thus: flow cytometry, percent of CD41-positive FDPDs stained; batch 3.
The target is the same in experiment [3]. The experiment can be described thus: flow cytometry, percent of CD41-positive FDPDs stained; batch 6.
The target is the same in experiment [4]. The experiment can be described thus: flow cytometry, percent of CD41-positive FDPDs stained; batch 1.
For experiment [5] the target is unchanged. Briefly: flow cytometry, percent of CD41-positive FDPDs stained; mean of 7 batches.
For experiment [6] the target is unchanged. Briefly: flow cytometry, percent of CD41-positive FDPDs stained; batch 4.
Experiment [7] shares this target. Briefly: flow cytometry, percent of CD41-positive FDPDs stained; batch 7.
Experiment [8] shares this target. The experiment can be described thus: flow cytometry, percent of CD41-positive FDPDs stained; batch 5.
In experiment [9] the target is Glycoprotein IIb (GPIIb, also known as antigen CD41) (UniProt P08514). Briefly: flow cytometry, percent of FDPDs stained; mean of 7 batches.
UniProt P08514, sequence (P08514 32-1039 limits assumed): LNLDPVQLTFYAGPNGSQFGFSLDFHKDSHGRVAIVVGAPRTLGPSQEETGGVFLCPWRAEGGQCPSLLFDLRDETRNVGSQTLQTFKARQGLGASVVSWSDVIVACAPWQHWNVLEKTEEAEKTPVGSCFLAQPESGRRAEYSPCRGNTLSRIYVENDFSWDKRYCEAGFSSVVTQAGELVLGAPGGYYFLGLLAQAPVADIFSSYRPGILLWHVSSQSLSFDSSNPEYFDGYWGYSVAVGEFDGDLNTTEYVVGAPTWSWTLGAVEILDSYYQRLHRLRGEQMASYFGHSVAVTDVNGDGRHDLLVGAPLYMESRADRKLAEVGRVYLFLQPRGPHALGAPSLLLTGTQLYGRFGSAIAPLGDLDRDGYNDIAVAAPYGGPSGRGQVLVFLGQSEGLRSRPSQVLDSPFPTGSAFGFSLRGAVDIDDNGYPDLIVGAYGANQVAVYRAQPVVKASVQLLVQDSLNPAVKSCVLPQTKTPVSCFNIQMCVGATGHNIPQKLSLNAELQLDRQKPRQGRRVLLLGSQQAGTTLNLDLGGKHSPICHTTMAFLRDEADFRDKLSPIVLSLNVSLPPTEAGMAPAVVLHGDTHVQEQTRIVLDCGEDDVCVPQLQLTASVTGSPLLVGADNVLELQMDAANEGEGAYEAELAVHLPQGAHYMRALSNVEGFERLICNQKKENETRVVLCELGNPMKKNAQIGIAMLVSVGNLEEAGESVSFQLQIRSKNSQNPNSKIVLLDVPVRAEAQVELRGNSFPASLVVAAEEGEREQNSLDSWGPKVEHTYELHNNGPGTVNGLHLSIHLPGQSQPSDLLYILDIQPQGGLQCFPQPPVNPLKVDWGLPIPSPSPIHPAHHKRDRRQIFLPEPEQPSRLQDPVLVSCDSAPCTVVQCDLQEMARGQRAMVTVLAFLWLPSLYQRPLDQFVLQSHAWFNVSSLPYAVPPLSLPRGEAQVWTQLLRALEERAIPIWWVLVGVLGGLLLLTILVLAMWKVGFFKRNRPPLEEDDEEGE
Experiment [10] has the same target. Briefly: flow cytometry, percent of FDPDs stained; batch 1.
Experiment [11] has the same target. The experiment can be described thus: flow cytometry, percent of FDPDs stained; batch 3.
Experiment [12] has the same target. Briefly: flow cytometry, percent of FDPDs stained; batch 7.
For experiment [13] the target is unchanged. The experiment can be described thus: flow cytometry, percent of FDPDs stained; batch 4.
The target is the same in experiment [14]. Briefly: flow cytometry, percent of FDPDs stained; batch 2.
The target is the same in experiment [15]. The experiment can be described thus: flow cytometry, percent of FDPDs stained; batch 6.
Experiment [16] has the same target. The experiment can be described thus: flow cytometry, percent of FDPDs stained; batch 5.
The target in experiment [17] is Von Willebrand factor (vWF) (UniProt P04275). The experiment can be described thus: flow cytometry, fresh washed platelets activated with collagen and thrombin.
UniProt P04275, sequence (P04275 764-2813 limits assumed): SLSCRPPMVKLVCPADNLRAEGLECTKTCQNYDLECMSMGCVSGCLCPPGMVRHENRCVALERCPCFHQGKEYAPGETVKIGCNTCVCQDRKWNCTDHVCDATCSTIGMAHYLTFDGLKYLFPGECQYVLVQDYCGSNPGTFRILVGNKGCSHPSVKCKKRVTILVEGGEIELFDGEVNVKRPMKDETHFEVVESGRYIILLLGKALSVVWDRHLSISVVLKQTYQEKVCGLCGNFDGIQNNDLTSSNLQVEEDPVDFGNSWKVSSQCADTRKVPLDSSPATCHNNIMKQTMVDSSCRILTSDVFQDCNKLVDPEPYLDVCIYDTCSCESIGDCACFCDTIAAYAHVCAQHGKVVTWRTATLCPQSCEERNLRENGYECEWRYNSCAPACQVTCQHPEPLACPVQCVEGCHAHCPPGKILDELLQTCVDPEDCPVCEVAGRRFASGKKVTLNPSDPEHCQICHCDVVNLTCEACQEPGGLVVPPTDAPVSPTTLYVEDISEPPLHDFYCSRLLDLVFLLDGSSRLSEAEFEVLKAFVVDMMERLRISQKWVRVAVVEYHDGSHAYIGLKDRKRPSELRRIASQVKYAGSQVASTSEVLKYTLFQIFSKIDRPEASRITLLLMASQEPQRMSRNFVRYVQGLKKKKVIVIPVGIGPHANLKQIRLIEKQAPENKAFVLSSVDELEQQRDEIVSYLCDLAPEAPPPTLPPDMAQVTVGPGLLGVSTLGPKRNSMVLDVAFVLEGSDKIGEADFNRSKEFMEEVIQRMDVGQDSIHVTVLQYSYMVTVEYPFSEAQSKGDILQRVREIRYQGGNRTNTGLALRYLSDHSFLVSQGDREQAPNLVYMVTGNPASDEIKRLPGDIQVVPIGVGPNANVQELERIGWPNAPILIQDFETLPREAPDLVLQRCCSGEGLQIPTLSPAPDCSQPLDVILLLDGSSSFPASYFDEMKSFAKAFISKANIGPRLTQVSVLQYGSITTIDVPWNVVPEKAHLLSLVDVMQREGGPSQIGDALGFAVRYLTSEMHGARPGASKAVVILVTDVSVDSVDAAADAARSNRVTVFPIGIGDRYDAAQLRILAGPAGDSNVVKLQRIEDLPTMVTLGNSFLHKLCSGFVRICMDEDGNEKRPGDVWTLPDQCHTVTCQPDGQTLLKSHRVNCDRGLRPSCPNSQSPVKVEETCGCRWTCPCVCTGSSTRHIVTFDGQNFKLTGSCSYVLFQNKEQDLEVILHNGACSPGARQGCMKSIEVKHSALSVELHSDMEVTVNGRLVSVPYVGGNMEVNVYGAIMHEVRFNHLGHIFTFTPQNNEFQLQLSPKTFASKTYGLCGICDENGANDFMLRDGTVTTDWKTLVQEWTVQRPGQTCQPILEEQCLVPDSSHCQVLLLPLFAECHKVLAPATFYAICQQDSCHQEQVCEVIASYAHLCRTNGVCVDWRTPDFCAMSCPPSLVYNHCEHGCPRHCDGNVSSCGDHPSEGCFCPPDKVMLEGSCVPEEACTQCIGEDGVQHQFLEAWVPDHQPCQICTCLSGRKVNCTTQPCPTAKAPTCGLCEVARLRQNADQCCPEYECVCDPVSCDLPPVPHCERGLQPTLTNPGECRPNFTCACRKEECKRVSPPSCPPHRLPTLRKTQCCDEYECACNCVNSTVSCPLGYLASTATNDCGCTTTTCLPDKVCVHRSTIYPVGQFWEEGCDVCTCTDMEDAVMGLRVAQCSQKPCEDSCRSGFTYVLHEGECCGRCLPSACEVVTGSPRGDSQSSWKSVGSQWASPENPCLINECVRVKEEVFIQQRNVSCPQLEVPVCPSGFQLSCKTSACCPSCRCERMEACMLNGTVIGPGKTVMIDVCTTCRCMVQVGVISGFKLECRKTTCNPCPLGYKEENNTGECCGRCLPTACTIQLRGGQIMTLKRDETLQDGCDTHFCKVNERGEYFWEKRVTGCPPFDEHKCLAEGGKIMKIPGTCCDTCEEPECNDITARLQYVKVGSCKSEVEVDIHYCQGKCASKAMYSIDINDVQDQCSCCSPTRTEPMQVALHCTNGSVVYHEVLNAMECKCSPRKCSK
For experiment [18] the target is unchanged. The experiment can be described thus: flow cytometry, rehydrated baked FDPDs, average of lots.
Experiment [19] has the same target. Briefly: flow cytometry, resting fresh washed platelets.
For experiment [20], the target named is Thrombospondin (TSP1) (UniProt P07996). The experiment can be described thus: flow cytometry, fresh washed platelets activated with collagen and thrombin.
UniProt P07996, sequence (P07996 19-1170 limits assumed): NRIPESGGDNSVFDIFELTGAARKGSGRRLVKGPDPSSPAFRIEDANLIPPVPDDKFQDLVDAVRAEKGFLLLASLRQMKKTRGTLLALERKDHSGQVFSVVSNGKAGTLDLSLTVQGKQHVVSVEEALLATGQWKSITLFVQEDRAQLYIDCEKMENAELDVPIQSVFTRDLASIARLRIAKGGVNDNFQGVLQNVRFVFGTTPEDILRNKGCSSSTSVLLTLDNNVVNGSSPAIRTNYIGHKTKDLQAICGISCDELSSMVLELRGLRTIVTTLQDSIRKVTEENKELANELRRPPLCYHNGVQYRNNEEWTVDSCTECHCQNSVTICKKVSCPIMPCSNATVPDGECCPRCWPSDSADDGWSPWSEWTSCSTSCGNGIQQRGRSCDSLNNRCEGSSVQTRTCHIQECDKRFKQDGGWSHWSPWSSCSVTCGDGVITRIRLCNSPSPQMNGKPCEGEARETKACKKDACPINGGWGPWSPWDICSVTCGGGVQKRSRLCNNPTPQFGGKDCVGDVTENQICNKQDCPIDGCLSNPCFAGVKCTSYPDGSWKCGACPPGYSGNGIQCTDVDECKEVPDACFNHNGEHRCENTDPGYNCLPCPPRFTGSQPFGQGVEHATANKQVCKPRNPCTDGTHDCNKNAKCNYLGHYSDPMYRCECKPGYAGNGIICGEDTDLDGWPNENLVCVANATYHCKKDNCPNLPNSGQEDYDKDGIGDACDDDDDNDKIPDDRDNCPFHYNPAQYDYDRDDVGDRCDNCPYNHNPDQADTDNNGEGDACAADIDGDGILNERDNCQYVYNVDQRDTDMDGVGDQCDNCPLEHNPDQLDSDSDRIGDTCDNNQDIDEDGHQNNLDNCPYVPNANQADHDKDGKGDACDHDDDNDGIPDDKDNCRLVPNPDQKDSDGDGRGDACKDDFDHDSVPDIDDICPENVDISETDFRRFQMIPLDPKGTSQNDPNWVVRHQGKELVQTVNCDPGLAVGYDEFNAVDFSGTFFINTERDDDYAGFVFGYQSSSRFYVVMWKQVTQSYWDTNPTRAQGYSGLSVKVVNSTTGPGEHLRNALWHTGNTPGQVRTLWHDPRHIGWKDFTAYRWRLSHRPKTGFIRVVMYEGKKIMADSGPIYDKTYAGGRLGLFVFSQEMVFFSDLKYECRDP
Experiment [21] shares this target. Briefly: flow cytometry, rehydrated baked FDPDs, average of lots.
For experiment [22] the target is unchanged. The experiment can be described thus: flow cytometry, resting fresh washed platelets.
The target of experiment [23] is P-selectin (also called CD62P) (human) (UniProt P16109). Briefly: flow cytometry, human apheresis platelets after 20 µM TRAP-6.
For experiment [24] the target is unchanged. The experiment can be described thus: flow cytometry, human apheresis platelets without TRAP-6.

UniProt P16109, sequence (P16109 42-830): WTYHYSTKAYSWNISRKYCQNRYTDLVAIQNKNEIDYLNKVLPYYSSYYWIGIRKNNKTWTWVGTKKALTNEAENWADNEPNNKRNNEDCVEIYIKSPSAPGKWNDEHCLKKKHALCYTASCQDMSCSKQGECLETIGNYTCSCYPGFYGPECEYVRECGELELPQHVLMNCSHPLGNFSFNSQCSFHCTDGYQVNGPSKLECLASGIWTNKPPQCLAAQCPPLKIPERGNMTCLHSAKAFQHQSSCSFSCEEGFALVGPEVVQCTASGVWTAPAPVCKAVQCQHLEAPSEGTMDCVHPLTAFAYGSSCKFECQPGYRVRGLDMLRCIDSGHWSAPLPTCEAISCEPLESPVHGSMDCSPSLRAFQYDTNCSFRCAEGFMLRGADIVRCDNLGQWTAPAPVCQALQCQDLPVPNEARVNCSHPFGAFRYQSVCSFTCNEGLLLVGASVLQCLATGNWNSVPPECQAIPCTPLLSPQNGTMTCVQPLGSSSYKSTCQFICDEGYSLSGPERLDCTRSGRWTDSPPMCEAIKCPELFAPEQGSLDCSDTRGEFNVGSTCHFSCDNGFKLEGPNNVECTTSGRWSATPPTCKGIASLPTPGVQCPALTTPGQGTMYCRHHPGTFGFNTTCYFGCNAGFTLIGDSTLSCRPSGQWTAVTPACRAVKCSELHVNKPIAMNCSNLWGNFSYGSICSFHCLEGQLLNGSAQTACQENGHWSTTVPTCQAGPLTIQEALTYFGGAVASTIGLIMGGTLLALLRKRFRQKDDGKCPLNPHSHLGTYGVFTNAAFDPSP

Regarding “anti-CD62P antibody (BD Biosciences Cat. No. 550888)”, the CD62 Positivity (%) in experiment [1] was determined as 93.1%; in experiment [2], 89.8%; in [3] it was 87.3%; in experiment [4] it was 94.2%; in experiment [5], 91.4%; in experiment [6] it was 92.4%. Besides, the CD62 Positivity (%) turned out to be 90.7% in experiment [7] and 92.5% in experiment [8].
As to “anti-CD41 antibody (Beckman Coulter part #IM1416U)”, the CD41 Positivity (%) in [9] amounted to 81.3%; in [10], 81.5%; in experiment [11], 85.7%; in experiment [12], 78.5%; in experiment [13] it was 78.2%; in [14], 79.4%. Also, the results for the CD41 Positivity (%) in experiment [15] and in [16] were 84% and 81.5%, respectively.
Consider “anti-Von Willebrand Factor antibody (Novus Biologicals Cat #NBP2-54379PE)”, for which the MFI in [17] stood at 19700 MFI; in [18] it was 14000 MFI; in [19], 4770 MFI.
Consider “anti-Thrombospondin-1 (TSP-1) antibody (Santa Cruz Biotech Cat #sc-59887 AF594)”, for which the MFI with Thrombospondin (TSP1) [20] amounted to 3310 MFI; with Thrombospondin (TSP1) [21], 91400 MFI; with Thrombospondin (TSP1) [22] it was 1220 MFI.
Turning to “anti-CD62P-PE antibody (BD Pharmingen Cat #550561 Lot #6322976)”, the MFI turned out to be 127000 MFI in experiment [23] and 2350 MFI in [24].
